B1: REGN10987 (antibody, V domains shown)
VH: QVQLVESGGGVVQPGRSLRLSCAASGFTFSNYAMYWVRQAPGKGLEWVAVISYDGSNKYYADSVKGRFTISRDNSKNTLYLQMNSLRTEDTAVYYCASGSDYGDYLLVYWGQGTLVTVSS
VL: QSALTQPASVSGSPGQSITISCTGTSSDVGGYNYVSWYQQHPGKAPKLMIYDVSKRPSGVSNRFSGSKSGNTASLTISGLQSEDEADYYCNSLTSISTWVFGGGTKLTVL
B2: REGN14315 (antibody, V domains shown)
VH: QVQLVQSGAEVKKPGSSVKVSCKASGDTFSTYAINWVRQAPGQGLEWMGRFIHIFGTANYAQKFQGRVTITADESTSTAYMELRSLRSEDTAVYYCARDGVDYGDYRPDYWGQGTLVTVSS
VL: EIVLTQSPGTLSLSPGERATLSCRASQSVSSNYLAWYQQKPGQAPRLLIYGASSRATGIPERFSGSGSGTDFTLTISRLEPEDFAVYYCQQYGSSLYTFGQGTKLEIK
B3: REGN14315 + REGN10987 (protein)
VH 1: B2 VH
VL 1: B2 VL
VH 2: B1 VH
VL 2: B1 VL

Target: SARS-COV-2 Spike, Omicron variant BA.4 + R346T (BA.4.6) (SARS-COV-2), P0DTC2
Assay: cell-based or functional assay

| Binder | Fold change over R10987 against D614G [fold] | pseudovirus neutralization IC50 [nM] |
| --- | --- | --- |
| B1 | 236 | 1.25 |
| B2 | 255 | 1.35 |
| B3 | 132 | 0.698 |
